The text below walks through data of US6521594 (dated 2003).

What all share (assay): ELISA
Background: In an ELISA, binding on a coated surface is turned into a signal by an enzyme label.

The target of experiment [1] is T1, Fibronectin receptor (human, UniProt P08648 42-1049; P05556 21-798).
In experiment [2] the target is T1, Fibronectin receptor. The source holds these as a separate data set.
For experiment [3], the target named is T1, Fibronectin receptor. This is another data set of the same source.
Experiment [4] concerns the target αvβ5.
In experiment [5] the target is T2, Platelet glycoprotein IIb/IIIa (human, UniProt P08514 32-1039; P05106 27-788).
Experiment [6] addresses αvβ5. This is another data set of the same source.
In experiment [7] the target is T2, Platelet glycoprotein IIb/IIIa. The source holds these as a separate data set.
Experiment [8] has as its target αvβ5. The source holds these as a separate data set.
Experiment [9] deals with T2, Platelet glycoprotein IIb/IIIa. The source holds these as a separate data set.
The target in experiment [10] is αvβ5. The source holds these as a separate data set.
In experiment [11] the target is αvβ5. The source holds these as a separate data set.

Where two headings read alike, the source gives them in different places. Starred links: 1 amine or outer side, 2 acyl side, 3 side chain; linkers in the order of their positions; H or OH if unused. Positions of bridges follow the written chain, without caps; N, C: chain ends. Non-standard residues stand in square brackets, D forms with d. Primed or numbered codes have the meaning given here. No end group written: not given here. *: point of attachment. Tyr(OMe)″ = O-methyl-tyrosine (Y-OMe, TyrOMe, O-Me-Tyr), COc1ccc(C[C@H](N[*:1])C(=O)[*:2])cc1; Tyr(Me) = O-methyl-tyrosine (Y-OMe, O-Me-Tyr), COc1ccc(C[C@H](N[*:1])C(=O)[*:2])cc1; Tyr(nBu) = O-n-butyl-tyrosine, CCCCOc1ccc(C[C@H](N[*:1])C(=O)[*:2])cc1; Cys(β,β-pentamethylene) = O=C([C@@H](N[*:1])C1(S[*:3])CCCCC1)[*:2]; Y‑OMe = O-methyl-tyrosine, COc1ccc(C[C@H](N[*:1])C(=O)[*:2])cc1; Cyclohexylacetyl(1-SH) = O=C(CC1(S)CCCCC1)*; Phe(4-I) = N[C@@H](Cc1ccc(I)cc1)C(=O)O; hPhe = N[C@@H](CCc1ccccc1)C(=O)O; dPen = CC(C)(S)[C@@H](N)C(=O)O; Pen = CC(C)(S)[C@H](N)C(=O)O; code O = not defined here; Tmc = not defined here

T1 sequence (P08648 42-1049, chain 1 of 2): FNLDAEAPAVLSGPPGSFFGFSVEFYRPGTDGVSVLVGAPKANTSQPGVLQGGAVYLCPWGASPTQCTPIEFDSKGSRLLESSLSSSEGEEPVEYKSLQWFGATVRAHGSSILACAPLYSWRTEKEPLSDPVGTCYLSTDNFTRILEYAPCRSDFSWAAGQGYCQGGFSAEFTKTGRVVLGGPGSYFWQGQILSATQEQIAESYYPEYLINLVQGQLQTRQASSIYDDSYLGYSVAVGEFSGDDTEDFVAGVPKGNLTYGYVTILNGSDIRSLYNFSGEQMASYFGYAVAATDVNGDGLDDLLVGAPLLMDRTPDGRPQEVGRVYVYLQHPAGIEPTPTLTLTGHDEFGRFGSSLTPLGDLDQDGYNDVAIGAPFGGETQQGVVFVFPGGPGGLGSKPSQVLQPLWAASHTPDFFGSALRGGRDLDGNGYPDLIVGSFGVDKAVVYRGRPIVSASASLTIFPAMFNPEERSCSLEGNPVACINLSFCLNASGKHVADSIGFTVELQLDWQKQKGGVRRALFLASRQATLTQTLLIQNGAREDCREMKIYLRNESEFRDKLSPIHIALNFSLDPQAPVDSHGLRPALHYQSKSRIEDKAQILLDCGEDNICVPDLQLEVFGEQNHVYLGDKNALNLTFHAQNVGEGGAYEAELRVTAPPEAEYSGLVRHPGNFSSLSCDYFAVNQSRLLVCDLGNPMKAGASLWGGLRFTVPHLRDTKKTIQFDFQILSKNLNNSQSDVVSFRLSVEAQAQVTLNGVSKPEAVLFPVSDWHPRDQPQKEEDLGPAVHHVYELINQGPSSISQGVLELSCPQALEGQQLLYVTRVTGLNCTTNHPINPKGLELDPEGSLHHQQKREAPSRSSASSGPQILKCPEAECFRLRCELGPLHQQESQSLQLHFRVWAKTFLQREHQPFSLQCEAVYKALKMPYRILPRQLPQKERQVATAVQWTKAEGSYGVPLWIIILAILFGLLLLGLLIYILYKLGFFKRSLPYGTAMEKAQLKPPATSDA
T1 sequence (P05556 21-798, chain 2 of 2): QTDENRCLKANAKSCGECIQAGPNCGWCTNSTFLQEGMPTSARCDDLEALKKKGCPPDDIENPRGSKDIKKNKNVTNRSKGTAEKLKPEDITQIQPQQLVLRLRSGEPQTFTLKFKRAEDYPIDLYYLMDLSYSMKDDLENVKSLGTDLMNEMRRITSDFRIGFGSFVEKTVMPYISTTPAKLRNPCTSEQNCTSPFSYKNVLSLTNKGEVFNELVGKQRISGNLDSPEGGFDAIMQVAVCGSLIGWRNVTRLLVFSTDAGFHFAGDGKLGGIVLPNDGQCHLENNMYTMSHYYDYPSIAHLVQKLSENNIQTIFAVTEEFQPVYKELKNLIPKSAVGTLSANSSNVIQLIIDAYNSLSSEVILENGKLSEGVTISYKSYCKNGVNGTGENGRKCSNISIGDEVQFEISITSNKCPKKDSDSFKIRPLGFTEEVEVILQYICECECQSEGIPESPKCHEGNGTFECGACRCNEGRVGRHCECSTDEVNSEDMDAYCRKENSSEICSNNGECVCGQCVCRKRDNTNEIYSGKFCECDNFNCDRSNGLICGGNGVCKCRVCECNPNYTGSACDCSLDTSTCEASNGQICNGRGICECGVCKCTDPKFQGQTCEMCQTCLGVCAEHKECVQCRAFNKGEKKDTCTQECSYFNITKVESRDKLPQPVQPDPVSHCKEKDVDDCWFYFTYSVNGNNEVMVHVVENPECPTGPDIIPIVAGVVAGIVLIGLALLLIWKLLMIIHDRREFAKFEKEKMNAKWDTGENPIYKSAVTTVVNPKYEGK

With R[Cys(β,β-pentamethylene)]GHRGD[Tyr(Me)]RCR (disulfide 2-10; also: Pmc2 made from D,L-Pmc, configuration not given here) [R(Pmc)GHRGD(O-Me-Tyr)RCR], the concentration for half-maximal inhibition (IC50) with Fibronectin receptor [1], with Fibronectin receptor [2] and in the experiment with Fibronectin receptor [3] was 980 nM in each case.

Consider Ac-CNPRGD[Tyr(OMe)″]EC-NH2 (disulfide 1-9) [Ac-CNPRGD(Y-OMe)EC-NH2], for which the half-maximal inhibitory concentration (IC50) with αvβ5 [4] turned out to be 9470 nM.

In the case of R[Cys(β,β-pentamethylene)]GHRGD[Tyr(nBu)]RCR (disulfide 2-10; also: Pmc from Boc-D/L-Pmc, isomer not given here) [R(Pmc)GHRGD(O-n-butyl-Tyr)RCR], the IC50 in [5] came to 30 nM. In other words, the double-digit nanomolar range.

For R[Pen]GHRGDLRCR (disulfide 2-10) [R(Pen)GHRGDLRCR], the IC50 with αvβ5 [6] came to 4930 nM; in [7], 40 nM.

R[Cys(β,β-pentamethylene)]GHRGD[hPhe]RCR (disulfide 2-10; also: Pmc2 from Boc-D/L-Pmc, configuration not given here) [R(Pmc)GHRGD(Hpa)RCR] displayed an IC50 in the experiment with αvβ5 [8] of 4250 nM.

For the molecule Ac-CNPRGD[Y‑OMe][code O]C-NH2 (disulfide 1-9 (inferred); reading uncertain) [Ac-CNPRGD(Y-OMe)OC-NH2], the figures for the half-maximal inhibitory concentration (IC50) (in [9]; in the experiment with αvβ5 [4]) were 50 nM and 7700 nM, respectively.

In the experiment with αvβ5 [6], R[dPen]GHRGDLRCR (disulfide 2-10) [R(D-Pen)GHRGDLRCR] gave an IC50 of 10000 nM.

For G[dPen]GHRGDLRCA (disulfide 2-10) [G(D-Pen)GHRGDLRCA], the concentration for half-maximal inhibition (IC50) in the experiment with αvβ5 [6] amounted to 5270 nM.

For the molecule CNPRGDXXC (N-terminal acetyl; O-Me-Tyr at 7; Cit at 8; C-terminal amide) [Ac-CNPRGD(Y-OMe)(Cit)C-NH2], in the experiment with αvβ5 [4], half-maximal inhibition (IC50) was put at 3460 nM.

On to G[Pen]GHRGDLRCA (disulfide 2-10) [G(Pen)GHRGDLRCA], for which the IC50 with αvβ5 [6] is 8260 nM.

B1: R(Tmc)GHRGDLRCR (peptide)
peptide: R[Tmc]GHRGDLRCR
modifications: disulfide (positions not given here); reading uncertain; also: Tmc2 as D,L mixture of diastereomers, printed as R(Tmc)GHRGDLRCR
Regarding B1, 30 nM corresponded to half-maximal inhibition in [7] (IC50).

For R[Cys(β,β-pentamethylene)]GHRGDFRCR (disulfide 2-10) [R(Pmc)GHRGDFRCR], the IC50 in experiment [5] worked out at 40 nM.

Turning to R[Cys(β,β-pentamethylene)]GHRGD[Tyr(Me)]RCR (disulfide 2-10; also: Pmc2 made from D,L-Pmc, configuration not given here) [R(Pmc)GHRGD(Y-OMe)RCR], the IC50 with αvβ5 [10], with αvβ5 [11] and in the experiment with αvβ5 [8] was 1050 nM in each case.

[Cyclohexylacetyl(1-SH)]GHRGDLRCA (disulfide 1-9 (inferred)) [(Pmp)GHRGDLRCA] had an IC50 in experiment [7] of 20 nM.

For the molecule R[Cys(β,β-pentamethylene)]GHRGDLRCR (disulfide 2-10 (inferred); also: D,L-Pmc mixture at 2) [R(Pmc)GHRGDLRCR], the IC50 with αvβ5 [6] and in the experiment with αvβ5 [8] was 1580 nM each time.

On to Ac-CNPRGD[Tyr(OMe)″]KC-NH2 (disulfide 1-9) [Ac-CNPRGD(Y-OMe)KC-NH2], for which, in the experiment with αvβ5 [4], the IC50 is 5820 nM.

In the case of R[Cys(β,β-pentamethylene)]GHRGD[Phe(4-I)]RCR (disulfide 2-10; also: Pmc2 from Boc-D/L-Pmc) [R(Pmc)GHRGD(p-I-F)RCR], the IC50 in the experiment with Fibronectin receptor [3] came to 4190 nM; in experiment [5], 10 nM; with αvβ5 [8] it was 4030 nM.

One may read the IC50 as the point on the concentration scale where inhibition reaches its midpoint.
